Here are results for four molecules from PMC5811034, “Xylem specific activation of 5’ upstream regulatory region of two NAC transcription factors (MusaVND6 and MusaVND7) in banana is regulated by SNBE-like sites”.

Experiment in all cases: EMSA; 10 mM Tris pH 8, 5 mM MgCl2, 10 mM KCl, 20 min (temperature not stated); 1.5% agarose gel
What all share (settings): protein: recombinant, chain copies: 2

The target of data set [1] is T1, VND3 (MusaVND3) (Musa (banana), cultivar  for …, UniProt A0A0G2UF56 1-336).
T1 sequence: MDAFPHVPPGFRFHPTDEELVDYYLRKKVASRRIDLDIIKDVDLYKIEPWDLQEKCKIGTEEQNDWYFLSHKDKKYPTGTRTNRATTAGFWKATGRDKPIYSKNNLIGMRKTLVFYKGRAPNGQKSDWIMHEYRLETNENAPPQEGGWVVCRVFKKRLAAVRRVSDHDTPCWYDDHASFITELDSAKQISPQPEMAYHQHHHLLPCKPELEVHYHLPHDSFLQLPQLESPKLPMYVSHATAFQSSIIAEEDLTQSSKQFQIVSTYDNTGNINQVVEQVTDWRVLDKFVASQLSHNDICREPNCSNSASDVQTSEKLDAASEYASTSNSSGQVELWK

Data set [2] deals with T2, VND1 (MusaVND1) (Musa (banana), cultivar  for …, UniProt A0A0U3BXB0 1-329).
T2 sequence: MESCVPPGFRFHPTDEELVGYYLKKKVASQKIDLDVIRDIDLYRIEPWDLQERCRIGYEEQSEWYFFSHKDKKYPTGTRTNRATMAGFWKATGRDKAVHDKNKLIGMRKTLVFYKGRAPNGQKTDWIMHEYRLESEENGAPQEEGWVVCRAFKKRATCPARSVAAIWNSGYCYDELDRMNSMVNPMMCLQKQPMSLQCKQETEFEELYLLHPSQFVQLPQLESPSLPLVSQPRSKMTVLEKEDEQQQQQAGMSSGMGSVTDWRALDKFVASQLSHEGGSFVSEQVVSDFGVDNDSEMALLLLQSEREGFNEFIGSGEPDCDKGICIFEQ

Data set [3] deals with T3, VND2 (MusaVND2) (Musa (banana), cultivar  for …, UniProt A0A0G2UKP9 1-329).
T3 sequence: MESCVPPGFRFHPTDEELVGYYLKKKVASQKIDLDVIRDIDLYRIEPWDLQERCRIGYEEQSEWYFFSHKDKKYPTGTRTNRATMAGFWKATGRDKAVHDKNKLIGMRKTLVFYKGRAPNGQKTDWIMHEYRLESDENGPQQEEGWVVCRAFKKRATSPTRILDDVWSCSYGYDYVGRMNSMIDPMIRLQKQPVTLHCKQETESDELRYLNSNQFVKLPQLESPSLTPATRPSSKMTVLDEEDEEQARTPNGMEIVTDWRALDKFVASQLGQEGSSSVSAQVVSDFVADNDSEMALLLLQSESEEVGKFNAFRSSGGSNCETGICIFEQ

B1: SNBE-like site PMusaVND6 (-220 to -201), 38 bp (dsDNA)
DNA 1: AATTCGATAGCCTTAGTTGTAGGGCTCAAGATTTTGGT
DNA 2: ACCAAAATCTTGAGCCCTACAACTAAGGCTATCGAATT
B1: the binding result in data set [1] (AGTTGTAGGGCTCAAGATT mutant), in data set [2] (AGTTGTAGGGCTCAAGATT mutant) and in data set [3] (AGTTGTAGGGCTCAAGATT mutant) was “binds” each time.

B2: SNBE-like site PMusaVND7 (-186 to -167), 38 bp (dsDNA)
DNA 1: AATTCGATAGCCTTTGGCGTGCACTCAAAGAAATTGGT
DNA 2: ACCAATTTCTTTGAGTGCACGCCAAAGGCTATCGAATT
For the molecule B2, the binding result in data set [1] (TGGCGTGCACTCAAAGAAA mutant), in data set [2] (TGGCGTGCACTCAAAGAAA mutant) and in data set [3] (TGGCGTGCACTCAAAGAAA mutant) was “binds” in each case.

B3: mSNBE PMusaVND6 (dsDNA)
DNA 1: CCTTCGTAAAAGGGCTCTTTAGGTTGG
DNA 2: CCAACCTAAAGAGCCCTTTTACGAAGG
On to B3, for which the binding result in data set [1], in data set [2] and in data set [3] was “no binding” each time.

B4: mSNBE PMusaVND7 (dsDNA)
DNA 1: CCTTCGGAAAGCACTCATTTAGGTTGG
DNA 2: CCAACCTAAATGAGTGCTTTCCGAAGG
Consider B4, for which the binding result in data set [1], in data set [2] and in data set [3] was “no binding” in each case.
